Data taken from US20150344570A1 (published 2015).

T1: FcγRIIa R (human, UniProt P12318 34-217)
T1 construct: extracellular domain; Soluble His-tagged extracellular domain expressed in FreeStyle293 cells; analyte in Biacore; also called FcgRIIa R; FcgRIIaR; not shown: His tag attached to the C terminus
T1 sequence (looked up): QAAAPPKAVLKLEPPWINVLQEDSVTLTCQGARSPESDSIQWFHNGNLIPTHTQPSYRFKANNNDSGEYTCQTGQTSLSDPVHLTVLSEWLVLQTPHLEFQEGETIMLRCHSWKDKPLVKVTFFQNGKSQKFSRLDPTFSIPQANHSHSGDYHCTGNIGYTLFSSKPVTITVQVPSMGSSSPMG

T2: FcγRIIb (human, UniProt P31994 43-217)
T2 construct: extracellular domain; Soluble His-tagged extracellular domain expressed in FreeStyle293 cells; analyte in Biacore; also called FcgRIIb; 2b; not shown: His tag attached to the C terminus
T2 sequence (looked up): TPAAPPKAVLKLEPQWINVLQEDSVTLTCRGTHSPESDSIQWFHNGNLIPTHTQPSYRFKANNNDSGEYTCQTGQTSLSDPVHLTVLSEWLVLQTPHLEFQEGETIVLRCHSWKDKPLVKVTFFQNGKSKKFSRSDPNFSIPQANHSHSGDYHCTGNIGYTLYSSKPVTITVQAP

T3: FcγRIIa R (extracellular domain, His tag at the C terminus) (human, UniProt P12318 34-217)
T3 construct: extracellular domain; Soluble analyte in Biacore; also called FcgRIIa R type; 2aR
T3 sequence (looked up): T1 sequence (looked up)

B1: GpH7-A5/GpH7-B3 variant P329_01G/GpL16-k0 (antibody, human IgG1, kappa)
heavy 1: not shown
heavy 2: not shown
light: DIVMTQSPLSLPVTPGEPASISCQASESLVHSNRNTYLHWYLQKPGQSPQLLIYKVSNRFSGVPDRFSGSGSGTDFTLKISRVEAEDVGVYYCSQNTHVPPTFGQGTKVEIERTVAAPSVFIFPPSDEQLKSGTASVVCLLNNFYPREAKVQWKVDNALQSGNSQESVTEQDSKDSTYSLSSTLTLSKADYEKHKVYACEVTHQGLSSPVTKSFNRGEC
notes: Heterodimerized anti-glypican-3 IgG1 antibody; alteration only in the GpH7-B3 H chain; position in EU numbering; also called He Ab
B2: GpH7-A5/GpH7-B3 variant A330_13S/GpL16-k0 (antibody, human IgG1, kappa)
heavy 1: not shown
heavy 2: not shown
light: B1 light
notes: as for B1
B3: GpH7-A5/GpH7-B3 variant A330_10E/GpL16-k0 (antibody, human IgG1, kappa)
heavy 1: not shown
heavy 2: not shown
light: B1 light
notes: as for B1
B4: GpH7-A5/GpH7-B3 variant A330_09D/GpL16-k0 (antibody, human IgG1, kappa)
heavy 1: not shown
heavy 2: not shown
light: B1 light
notes: as for B1
B5: GpH7-A5/GpH7-B3 variant I336_20W/GpL16-k0 (antibody, human IgG1, kappa)
heavy 1: not shown
heavy 2: not shown
light: B1 light
notes: as for B1
B6: GpH7-A5/GpH7-B3 variant A330_18N/GpL16-k0 (antibody, human IgG1, kappa)
heavy 1: not shown
heavy 2: not shown
light: B1 light
notes: as for B1
B7: GpH7-A5/GpH7-B3 variant A330_03V/GpL16-k0 (antibody, human IgG1, kappa)
heavy 1: not shown
heavy 2: not shown
light: B1 light
notes: as for B1
B8: GpH7-A5/GpH7-B3 variant A330_12R/GpL16-k0 (antibody, human IgG1, kappa)
heavy 1: not shown
heavy 2: not shown
light: B1 light
notes: as for B1
B9: GpH7-A5/GpH7-B3 variant N325_05P/GpL16-k0 (antibody, human IgG1, kappa)
heavy 1: not shown
heavy 2: not shown
light: B1 light
notes: as for B1
B10: GpH7-A5/GpH7-B3 variant A330_14T/GpL16-k0 (antibody, human IgG1, kappa)
heavy 1: not shown
heavy 2: not shown
light: B1 light
notes: as for B1
B11: GpH7-A5/GpH7-B3 variant A330_07I/GpL16-k0 (antibody, human IgG1, kappa)
heavy 1: not shown
heavy 2: not shown
light: B1 light
notes: as for B1
B12: GpH7-A5/GpH7-B3 variant N325_02A/GpL16-k0 (antibody, human IgG1, kappa)
heavy 1: not shown
heavy 2: not shown
light: B1 light
notes: as for B1
B13: GpH7-A5/GpH7-B3 variant A330_08L/GpL16-k0 (antibody, human IgG1, kappa)
heavy 1: not shown
heavy 2: not shown
light: B1 light
notes: as for B1
B14: GpH7-A5/GpH7-B3 variant Y300_05P/GpL16-k0 (antibody, human IgG1, kappa)
heavy 1: not shown
heavy 2: not shown
light: B1 light
notes: as for B1
B15: GpH7-A5/GpH7-B3 variant T335_09D/GpL16-k0 (antibody, human IgG1, kappa)
heavy 1: not shown
heavy 2: not shown
light: B1 light
notes: heterodimerized; also called He Ab
B16: GpH7-A5/GpH7-B3 variant T335_16H/GpL16-k0 (antibody, human IgG1, kappa)
heavy 1: not shown
heavy 2: not shown
light: B1 light
notes: as for B15
B17: GpH7-A5/GpH7-B3 variant S239_01G/GpL16-k0 (antibody, human IgG1, kappa)
heavy 1: not shown
heavy 2: not shown
light: B1 light
notes: as for B15
B18: GpH7-A5/GpH7-B3 variant T335_18N/GpL16-k0 (antibody, human IgG1, kappa)
heavy 1: not shown
heavy 2: not shown
light: B1 light
notes: as for B15
B19: GpH7-A5/GpH7-B3 variant T335_19Q/GpL16-k0 (antibody, human IgG1, kappa)
heavy 1: not shown
heavy 2: not shown
light: B1 light
notes: as for B15
B20: GpH7-A5/GpH7-B3 variant S267_07I/GpL16-k0 (antibody, human IgG1, kappa)
heavy 1: not shown
heavy 2: not shown
light: B1 light
notes: as for B15
B21: GpH7-A5/GpH7-B3 variant Y296_20W/GpL16-k0 (antibody, human IgG1, kappa)
heavy 1: not shown
heavy 2: not shown
light: B1 light
notes: as for B15
B22: GpH7-A5/GpH7-B3 variant T335_06M/GpL16-k0 (antibody, human IgG1, kappa)
heavy 1: not shown
heavy 2: not shown
light: B1 light
notes: as for B15
B23: GpH7-A5/GpH7-B3 variant T335_08L/GpL16-k0 (antibody, human IgG1, kappa)
heavy 1: not shown
heavy 2: not shown
light: B1 light
notes: as for B15
B24: GpH7-A5/GpH7-B3 variant S337_14T/GpL16-k0 (antibody, human IgG1, kappa)
heavy 1: not shown
heavy 2: not shown
light: B1 light
notes: as for B15
B25: GpH7-A5/GpH7-B3 variant S267_01G/GpL16-k0 (antibody, human IgG1, kappa)
heavy 1: not shown
heavy 2: not shown
light: B1 light
notes: as for B15
B26: GpH7-A5/GpH7-B3 variant Y300_04F/GpL16-k0 (antibody, human IgG1, kappa)
heavy 1: not shown
heavy 2: not shown
light: B1 light
notes: as for B15
B27: GpH7-A5/GpH7-B3 variant T335_04F/GpL16-k0 (antibody, human IgG1, kappa)
heavy 1: not shown
heavy 2: not shown
light: B1 light
notes: as for B15
B28: GpH7-A5/GpH7-B3 variant L328_15Y/GpL16-k0 (antibody, human IgG1, kappa)
heavy 1: not shown
heavy 2: not shown
light: B1 light
notes: as for B15
B29: GpH7-A5/GpH7-B3 variant S239_09D/GpL16-k0 (antibody, human IgG1, kappa)
heavy 1: not shown
heavy 2: not shown
light: B1 light
notes: as for B15
B30: GpH7-A5/GpH7-B3 variant S267_02A/GpL16-k0 (antibody, human IgG1, kappa)
heavy 1: not shown
heavy 2: not shown
light: B1 light
notes: as for B15
B31: GpH7-A5/GpH7-B3 variant P238_08L/GpL16-k0 (antibody, human IgG1, kappa)
heavy 1: not shown
heavy 2: not shown
light: B1 light
notes: as for B15
B32: GpH7-A5/GpH7-B3 variant P271_01G/GpL16-k0 (antibody, human IgG1, kappa)
heavy 1: not shown
heavy 2: not shown
light: B1 light
notes: as for B15
B33: GpH7-A5/GpH7-B3 variant V266_06M/GpL16-k0 (antibody, human IgG1, kappa)
heavy 1: not shown
heavy 2: not shown
light: B1 light
notes: as for B15
B34: GpH7-A5/GpH7-B3 variant T335_20W/GpL16-k0 (antibody, human IgG1, kappa)
heavy 1: not shown
heavy 2: not shown
light: B1 light
notes: as for B15

biological target: T1, FcγRIIa R; test: SPR (Biacore), antibody captured via antigen peptide, FcγR as analyte
Procedure: (§1) The heterodimerized antibodies He Abs in which one of the H chains was introduced with an alteration were assayed for their binding activities to each activating FcγR and inhibitory FcγR according to the method described in Example 4. […] The activating FcγRs in FIGS. 26, 27, 28, and 29 are FcγRIa, FcγRIIa (R), FcγRIIa (H), and FcγRIIIa, respectively.
(§2) Analysis of interaction between objective antibody and the FcγR was carried out using Biacore T100 (GE Healthcare). HBS-EP+ (GE Healthcare) was used as the running buffer, and the measurement temperature was set to 25° C. Chips produced by immobilizing the antigen peptide by the amine coupling method to a Series S Sencor Chip CM5 (GE Healthcare), or alternatively, chips produced by allowing preliminarily biotinylated antigen peptides to interact with and immobilize onto a Series S Sensor Chip SA (certified) (GE Healthcare) were used. Antibodies of interest were captured onto an antigen peptide-immobilized chip, and allowed to interact to each FcγR diluted with running buffer. To regenerate and repeatedly use the chip, the antibodies captured on the chip were washed off by reacting 10 mM glycine-HCl, pH 1.5.

Binder | He/Con_2aR (IIaR binding relative to GpH7-A5/GpH7-B3/GpL16-k0)
B1 | 55 % of control (control = 100)
B2 | 60.8 % of control (control = 100)
B3 | 86.6 % of control (control = 100)
B4 | 70.9 % of control (control = 100)
B5 | 30.3 % of control (control = 100)
B6 | 81.1 % of control (control = 100)
B7 | 74.9 % of control (control = 100)
B8 | 104 % of control (control = 100)
B9 | 42.2 % of control (control = 100)
B10 | 95.5 % of control (control = 100)
B11 | 85.6 % of control (control = 100)
B12 | 84.1 % of control (control = 100)
B13 | 88.8 % of control (control = 100)
B14 | 10.8 % of control (control = 100)

biological target: T2, FcγRIIb; test: as above
Procedure: as §1, §2

Binder | He/Con_2b (IIb binding relative to GpH7-A5/GpH7-B3/GpL16-k0)
B1 | 41.7 % of control (control = 100)
B2 | 41.3 % of control (control = 100)
B3 | 70.1 % of control (control = 100)
B4 | 55.6 % of control (control = 100)
B5 | 20.3 % of control (control = 100)
B6 | 63.7 % of control (control = 100)
B7 | 52.4 % of control (control = 100)
B8 | 84.8 % of control (control = 100)
B9 | 26 % of control (control = 100)
B10 | 77.9 % of control (control = 100)
B11 | 67.1 % of control (control = 100)
B12 | 64.4 % of control (control = 100)
B13 | 70.5 % of control (control = 100)

biological target: T1, FcγRIIa R; test: ratio of He/Con_2aR to He/Con_2b (binding to FcγRIIb as reference); SPR

Binder | He_2aR/2b (IIaR/IIb)
B1 | 1.32
B2 | 1.47
B3 | 1.23
B4 | 1.27
B5 | 1.5
B6 | 1.27
B7 | 1.43
B8 | 1.22
B9 | 1.63
B10 | 1.23
B11 | 1.27
B12 | 1.31
B13 | 1.26
B14 | 1.47

biological target: T3, FcγRIIa R (extracellular domain, His …); test: SPR (Biacore), relative binding, control GpH7-A5/GpH7-B3/GpL16-k0 = 100
Procedure: as §2

Binder | He/Con_2aR
B15 | 110 % of control
B16 | 108 % of control
B17 | 128 % of control
B18 | 106 % of control
B19 | 106 % of control
B20 | 111 % of control
B21 | 110 % of control
B22 | 105 % of control
B23 | 108 % of control
B24 | 110 % of control
B25 | 113 % of control
B26 | 108 % of control
B27 | 108 % of control
B28 | 136 % of control
B29 | 137 % of control
B30 | 155 % of control
B31 | 140 % of control
B32 | 144 % of control
B33 | 150 % of control
B34 | 109 % of control
